In patent US20240117334A1, “FACTOR B PROTEASES” (Vertex Pharmaceuticals Incorporated, priority 2021, published 2024):
Numbering of substitutions follows the chain as printed. Names may count otherwise. One block for each binder: values may come before it.

Columns and labels:
Human Factor B (human) = Human Factor B (human) (UniProt P00751); assay: cell-based or functional assay
EGVD/AE-ACT = assay: reaction of the protease with the serpin bait EGVD/AE-ACT

Sequence of Human Factor B (human) (P00751 26-764 limits assumed): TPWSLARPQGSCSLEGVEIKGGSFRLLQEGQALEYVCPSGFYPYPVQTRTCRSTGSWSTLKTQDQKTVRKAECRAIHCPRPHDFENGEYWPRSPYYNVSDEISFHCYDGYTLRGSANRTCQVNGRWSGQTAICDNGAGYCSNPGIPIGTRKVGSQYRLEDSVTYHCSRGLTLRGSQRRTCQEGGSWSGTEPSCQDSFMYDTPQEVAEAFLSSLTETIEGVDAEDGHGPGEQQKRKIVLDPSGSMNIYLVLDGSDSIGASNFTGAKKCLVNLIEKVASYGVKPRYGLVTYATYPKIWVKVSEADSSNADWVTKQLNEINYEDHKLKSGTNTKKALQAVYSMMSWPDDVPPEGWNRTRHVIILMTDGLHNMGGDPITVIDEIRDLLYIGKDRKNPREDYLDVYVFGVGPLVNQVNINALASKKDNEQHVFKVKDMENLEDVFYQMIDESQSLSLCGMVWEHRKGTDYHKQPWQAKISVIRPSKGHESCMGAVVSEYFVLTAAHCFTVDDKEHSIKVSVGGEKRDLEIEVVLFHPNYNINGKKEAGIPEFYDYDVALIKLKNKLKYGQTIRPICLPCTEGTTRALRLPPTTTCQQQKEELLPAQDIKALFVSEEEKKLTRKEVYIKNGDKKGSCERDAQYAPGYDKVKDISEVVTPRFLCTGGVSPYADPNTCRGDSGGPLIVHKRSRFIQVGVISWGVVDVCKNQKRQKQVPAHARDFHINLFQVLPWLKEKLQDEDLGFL

- fB Cleavage EC50 (Human Factor B (human)): 7.77 µM
- fB Cleavage, 64% A2M-depl plasma EC50 (Human Factor B (human)): 2.29 µM
- fB Cleavage, 64% plasma EC50 (Human Factor B (human)): 4.38 µM
- fB Cleavage, 80% plasma EC50 (Human Factor B (human)): 7.59 µM
B1: chymase C22S/L99R/F173L/K192R/Y215H/R217T/S218V/A226R (enzyme)
chain: IIGGTESKPHSRPYMAYLEIVTSNGPSKFCGGFLIRRNFVLTAAHCAGRSITVTLGAHNITEEEDTWQKLEVIKQFRHPKYNTSTRHHDIMLLKLKEKASLTLAVGTLPFPSQFNFVPPGRMCRVAGWGRTGVLKPGSDTLQEVKLRLMDPQACSHLRDFDHNLQLCVGNPRKTKSAFRGDSGGPLLCAGVAQGIVSHGTVDAKPPRVFTRISHYRPWINQILQAN

B2: chymase C22S/F41R/L99Y/G151T/F173K/R217S/A226R (enzyme)
chain: B1 chain with F29R, R86Y, G137T, L157K, R179K, H198Y, T200S, V201S
- k*app (second order rate constant) (EGVD/AE-ACT): 684

- fB Cleavage EC50 (Human Factor B (human)): 3.23 µM
B3: chymase C22S/F41L/L99H/G151T/F173Y/Y215K/A226R (enzyme)
chain: B1 chain with F29L, R86H, G137T, L157Y, R179K, H198K, T200R, V201S

B4: chymase C22S/F41I/L99W/G151L/F173K/R217S/A226R (enzyme)
chain: B1 chain with F29I, R86W, G137L, L157K, R179K, H198Y, T200S, V201S
- k*app (second order rate constant) (EGVD/AE-ACT): 1730

- fB Cleavage EC50 (Human Factor B (human)): 3.45 µM
B5: chymase C22S/F41L/L99H/F173Y/Y215K/A226R (enzyme)
chain: B1 chain with F29L, R86H, L157Y, R179K, H198K, T200R, V201S

B6: chymase F41V/L99H/G151V/F173Y/Y215K/R217G/A226R (enzyme)
chain: B1 chain with S7C, F29V, R86H, G137V, L157Y, R179K, H198K, T200G, V201S
- k*app (second order rate constant) (EGVD/AE-ACT): 649

- fB Cleavage EC50 (Human Factor B (human)): 7.77 µM
B7: chymase C22S/K40M/F41V/K192R/A226R (enzyme)
chain: B1 chain with K28M, F29V, R86L, L157F, H198Y, T200R, V201S

- fB Cleavage, 64% A2M-depl plasma EC50 (Human Factor B (human)): 4.58 µM
- fB Cleavage, 64% plasma EC50 (Human Factor B (human)): 12.4 µM
B8: chymase C22S/L99Y/F173L/K192R/Y215H/R217T/S218V/A226R (enzyme)
chain: B1 chain with R86Y

- fB Cleavage EC50 (Human Factor B (human)): 7.13 µM
B9: chymase C22S/V138I/L160V/S189T/A226R (enzyme)
chain: B1 chain with R86L, V125I, L146V, L157F, S176T, R179K, H198Y, T200R, V201S

- fB Cleavage EC50 (Human Factor B (human)): 2.25 µM
- fB Cleavage, 64% A2M-depl plasma EC50 (Human Factor B (human)): 2.88 µM
- fB Cleavage, 64% plasma EC50 (Human Factor B (human)): 3.4 µM
B10: chymase C22S/F41R/L99H/G151A/F173S/Y215K/R217T/A226R (enzyme)
chain: B1 chain with F29R, R86H, G137A, L157S, R179K, H198K, V201S

- fB Cleavage EC50 (Human Factor B (human)): 5.33 µM
B11: chymase C22S/F41V/L99H/G151T/F173Y/Y215K/A226R (enzyme)
chain: B1 chain with F29V, R86H, G137T, L157Y, R179K, H198K, T200R, V201S

- fB Cleavage EC50 (Human Factor B (human)): 5.42 µM
B12: chymase C22S/F41V/L99H/G151T/F173L/Y215K/A226R (enzyme)
chain: B1 chain with F29V, R86H, G137T, R179K, H198K, T200R, V201S

- fB Cleavage EC50 (Human Factor B (human)): 7.77 µM
B13: chymase C22S/F41I/L99H/G151K/F173Y/Y215K/R217G/A226R (enzyme)
chain: B1 chain with F29I, R86H, G137K, L157Y, R179K, H198K, T200G, V201S

B14: chymase C22S/F41R/L99H/G151T/F173Y/Y215K/R217M/A226R (enzyme)
chain: B1 chain with F29R, R86H, G137T, L157Y, R179K, H198K, T200M, V201S
- k*app (second order rate constant) (EGVD/AE-ACT): 1500

- fB Cleavage EC50 (Human Factor B (human)): 11.5 µM
B15: chymase C22S/F41G/L99H/G151T/F173L/Y215K/A226R (enzyme)
chain: B1 chain with F29G, R86H, G137T, R179K, H198K, T200R, V201S

- fB Cleavage EC50 (Human Factor B (human)): 10.2 µM
B16: chymase C22S/F41G/L99H/F173L/Y215K/A226R (enzyme)
chain: B1 chain with F29G, R86H, R179K, H198K, T200R, V201S

- fB Cleavage EC50 (Human Factor B (human)): 4 µM
B17: chymase C22S/L99F/F173K/K192R/R217S/S218I/A226R (enzyme)
chain: B1 chain with R86F, L157K, H198Y, T200S, V201I

B18: chymase C22S (enzyme)
chain: B1 chain with R86L, L157F, R179K, H198Y, T200R, V201S, R207A
- k*app (second order rate constant) (EGVD/AE-ACT): 30.2

- fB Cleavage EC50 (Human Factor B (human)): 7.89 µM
B19: chymase C22S/F41L/L99H/F173L/Y215K/A226R (enzyme)
chain: B1 chain with F29L, R86H, R179K, H198K, T200R, V201S

- fB Cleavage EC50 (Human Factor B (human)): 0.555 µM
B20: chymase C22S/L99R/F173Y/K192R/S218L/A226R (enzyme)
chain: B1 chain with L157Y, H198Y, T200R, V201L

- fB Cleavage EC50 (Human Factor B (human)): 8.73 µM
B21: chymase C22S/F41V/L99H/F173L/Y215K/A226R (enzyme)
chain: B1 chain with F29V, R86H, R179K, H198K, T200R, V201S

- fB Cleavage EC50 (Human Factor B (human)): 3.22 µM
B22: chymase C22S/F41R/L99H/G151T/F173Y/Y215K/A226R (enzyme)
chain: B1 chain with F29R, R86H, G137T, L157Y, R179K, H198K, T200R, V201S

- fB Cleavage EC50 (Human Factor B (human)): 5.99 µM
B23: chymase C22S/F173L/Y215H/A226R (enzyme)
chain: B1 chain with R86L, R179K, T200R, V201S

- fB Cleavage EC50 (Human Factor B (human)): 7.39 µM
B24: chymase C22S/K40L/F41A/K192R/A226R (enzyme)
chain: B1 chain with K28L, F29A, R86L, L157F, H198Y, T200R, V201S

B25: chymase C22S/L99H/F173I/K192R/Y215K/R217T/S218I/A226R (enzyme)
chain: B1 chain with R86H, L157I, H198K, V201I
- k*app (second order rate constant) (EGVD/AE-ACT): 1040

- fB Cleavage EC50 (Human Factor B (human)): 6.06 µM
B26: chymase C22S/F41V/L99H/F173Y/Y215K/A226R (enzyme)
chain: B1 chain with F29V, R86H, L157Y, R179K, H198K, T200R, V201S

B27: chymase C22S/F41R/L99G/G151T/F173Y/Y215R/R217M/A226R (enzyme)
chain: B1 chain with F29R, R86G, G137T, L157Y, R179K, H198R, T200M, V201S
- k*app (second order rate constant) (EGVD/AE-ACT): 773

- fB Cleavage EC50 (Human Factor B (human)): 2.66 µM
B28: chymase C22S/L99W/F173K/R217S/S218R/A226R (enzyme)
chain: B1 chain with R86W, L157K, R179K, H198Y, T200S, V201R
